In PMC3763545 (Nucleic Acids Research, 2013):
Each block holds one molecule with its values, some of them ahead of it.

B2: human full-length SLIP1 (natural protein, UniProt A9UHW6 1-222, looked up)
chain: MGEPSREEYKIQSFDAETQQLLKTALKDPGAVDLEKVANVIVDHSLQDCVFSKEAGRMCYAIIQAESKQAGQSVFRRGLLNRLQQEYQAREQLRARSLQGWVCYVTFICNIFDYLRVNNMPMMALVNPVYDCLFRLAQPDSLSKEEEVDCLVLQLHRVGEQLEKMNGQRMDELFVLIRDGFLLPTGLSSLAQLLLLEIIEFRAAGWKTTPAAHKYYYSEVSD

Tests used:
Test in all cases: ITC
[1] = target: zebrafish (Danio rerio) full-length SLIP1 (zebrafish (Danio rerio))
human full-length SLIP1 = target: B2
[2] = target: T1, human DBP5 f.l. (residues 1-479) (human, UniProt Q9UMR2 1-479)
T1 sequence (looked up): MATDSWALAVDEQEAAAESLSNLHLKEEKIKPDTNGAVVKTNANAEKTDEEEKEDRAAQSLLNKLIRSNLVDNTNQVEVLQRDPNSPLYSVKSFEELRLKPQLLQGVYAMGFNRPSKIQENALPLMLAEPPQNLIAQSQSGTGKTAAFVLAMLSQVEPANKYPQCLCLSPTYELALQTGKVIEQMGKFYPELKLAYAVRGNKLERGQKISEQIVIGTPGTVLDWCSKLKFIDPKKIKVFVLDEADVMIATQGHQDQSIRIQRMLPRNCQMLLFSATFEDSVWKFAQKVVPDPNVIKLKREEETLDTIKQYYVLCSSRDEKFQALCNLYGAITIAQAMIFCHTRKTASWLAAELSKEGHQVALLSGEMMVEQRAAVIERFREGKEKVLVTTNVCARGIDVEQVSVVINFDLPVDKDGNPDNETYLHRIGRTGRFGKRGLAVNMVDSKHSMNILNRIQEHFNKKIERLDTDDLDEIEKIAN

Kd [1]: 2000 nM
Molecule: zebrafish DBP5 residues 1-32 (domain or fragment)

Kd (human full-length SLIP1): ~1100 nM
B1: human DBP5 residues 1-51 (domain or fragment, UniProt Q9UMR2 1-51, looked up)
chain: MATDSWALAVDEQEAAAESLSNLHLKEEKIKPDTNGAVVKTNANAEKTDEE

Molecule: B2
Kd [2]: 100 nM
